Measured values reported in patent US20230212319A1, “NOVEL ANTIGEN BINDING DOMAINS AND SYNTHETIC ANTIGEN RECEPTORS INCORPORATING THE SAME” (University of Southern California, priority 2020, published 2023).
Entries after “also recorded” stand apart in the source; their conditions may differ.

B1: 22225 (protein)
chain: MALPVTALLLPLALLLHAARPDIQMTQSPSSLSASVGDRVTITCKASDHINNWLAWYQQKPGQAPKLLIYGATTLETGVPSRFSGSGSGTDYTLTISSLQPEDFATYYCQQSWNTPWTFGQGTKLEIKRLEDLKNVFPPEVAVFEPSEAEISHTQKATLVCLATGFYPDHVELSWWVNGKEVHSGVCTDPQPLKEQPALNDSRYCLSSRLRVSATFWQNPRNHFRCQVQFYGLSENDEWTQDRAKPVTQIVSAEAWGRADCGFTSESYQQGVLSATILYEILLGKATLYAVLVSALVLMAMVKRKDSRGRAKRSGSGATNFSLLKQAGDVEENPGPTSATMDWIWRILFLVGAATGAHSGPEVQLVESGGGLVQAGGSLRLSCAASGRTFTMGWFRQAPGKEREFVAAISLSPTLAYYADSVKGRFTISRDNAKNTVVLQMNSLKPEDTALYYCAADRKSVMSIRPDYWGQGTQVTVSSGSGPLGIAGIFEQVQLQQPGAELVKPGASVKMSCKASGYAFSSYWINWMKQKPGQGLEWIGQIYPGDGDTNYNGKFKGRATLTADTSSSTAYMQLSSLTSEDSAVYFCARSITTVVGCAMDYWGQGTSVTVSSTRIQNPDPAVYQLRDSKSSDKSVCLFTDFDSQTNVSQSKDSDVYITDKCVLDMRSMDFKSNSAVAWSNKSDFACANAFNNSIIPEDTFFPSPESSCDVKLVEKSFETDTNLNFQNLSVIGFRILLLKVAGFNLLMTLRLWSSRAKRSGSGVKQTLNFDLLKLAGDVESNPGPSRGHMTEYKPTVRLATRDDVPRAVRTLAAAFADYPATRHTVDPDRHIERVTELQELFLTRVGLDIGKVWVADDGAAVAVWTTPESVEAGAVFAEIGPRMAELSGSRLAAQQQMEGLLAPHRPKEPAWFLATVGVSPDHQGKGLGSAVVLPGVEAAERAGVPAFLETSAPRNLPFYERLGFTVTADVEVPEGPRTWCMTRKPGA
B2: 22250 (protein)
chain: B1 chain
B3: 9832 (protein)
chain: MALPVTALLLPLALLLHAARPDIQMTQSPSSLSASVGDRVTITCKASQDVGTAVDWYQQKPGKAPKLLISWASTRHTGVPSRFSGSGSGTDFTLTISSLQPEDFATYFCQQYNSYPLTFGQGTKVEIKRTVLEDLKNVFPPEVAVFEPSEAEISHTQKATLVCLATGFYPDHVELSWWVNGKEVHSGVCTDPQPLKEQPALNDSRYCLSSRLRVSATFWQNPRNHFRCQVQFYGLSENDEWTQDRAKPVTQIVSAEAWGRADCGFTSESYQQGVLSATILYEILLGKATLYAVLVSALVLMAMVKRKDSRGRAKRSGSGATNFSLLKQAGDVEENPGPTSMDWIWRILFLVGAATGAHSFEQVQLVQSGAEVKKPGESVKVSCKASGYTFTEYTIHWVRQAPGQGLEWMGNINPNNGGTTYNQKFEDRVTITADKSTSTAYMELSSLRSEDTAVYYCARGWNFDYWGQGTTVTVSSTRIQNPDPAVYQLRDSKSSDKSVCLFTDFDSQTNVSQSKDSDVYITDKCVLDMRSMDFKSNSAVAWSNKSDFACANAFNNSIIPEDTFFPSPESSCDVKLVEKSFETDTNLNFQNLSVIGFRILLLKVAGFNLLMTLRLWSS
modifications: Synthetic Polynucloetide
B4: 9694 (protein)
chain: MALPVTALLLPLALLLHAARPDIVMTQSHKFMSTSVGDRVSIICKASQDVGTAVDWYQQKPGQSPKLLIYWASTRHTGVPDRFTGSGSGTDFTLAITNVQSEDLADYFCQQYNSYPLTFGAGTKLEIKRLEDLKNVFPPEVAVFEPSEAEISHTQKATLVCLATGFYPDHVELSWWVNGKEVHSGVCTDPQPLKEQPALNDSRYCLSSRLRVSATFWQNPRNHFRCQVQFYGLSENDEWTQDRAKPVTQIVSAEAWGRADCGFTSESYQQGVLSATILYEILLGKATLYAVLVSALVLMAMVKRKDSRGRAKRSGSGATNFSLLKQAGDVEENPGPTSMDWIWRILFLVGAATGAHSFEEVQLQQSGPELVKPGTSVRISCKTSGYTFTEYTIHWVKQSHGKSLEWIGNINPNNGGTTYNQKFEDKATLTVDKSSSTAYMELRSLTSEDSAVYYCAAGWNFDYWGQGTTLTVSSTRIQNPDPAVYQLRDSKSSDKSVCLFTDFDSQTNVSQSKDSDVYITDKCVLDMRSMDFKSNSAVAWSNKSDFACANAFNNSIIPEDTFFPSPESSCDVKLVEKSFETDTNLNFQNLSVIGFRILLLKVAGFNLLMTLRLWSS
modifications: Synthetic Polynucloetide
B5: 9762 (protein)
chain: MALPVTALLLPLALLLHAARPDIQMTQSPSSLSASVGDRVTITCKASQDVGTAVDWYQQKPGKAPKLLIYWASTRHTGVPSRFSGSGSGTDFTLTISSLQPEDFATYYCQQYNSYPLTFGQGTKVEIKRLEDLKNVFPPEVAVFEPSKAEIAHTQKATLVCLATGFYPDHVELSWWVNGKEVHSGVCTDPQPLKEQPALNDSRYCLSSRLRVSATFWQNPRNHFRCQVQFYGLSENDEWTQDRAKPVTQIVSAEAWGRADCGITSASYHQGVLSATILYEILLGKATLYAVLVSALVLMAMVKRKDSRGRAKRSGSGATNFSLLKQAGDVEENPGPTSMDWIWRILFLVGAATGAHSFEEVQLVESGGGLVQPGGSLRLSCAASGYTFTEYTIHWVRQAPGKGLEWVANINPNNGGTTYNQKFEDRFTISRDNSKNTLYLQMNSLRAEDTAVYYCARGWNFDYWGQGTLVTVSSTRIQNPDPAVYQLRDSKSSDKSVCLFTDFDSQTNVSQSKDSDVYITDKCVLDMRSMDFKSNSAVAWSNKSDFACANAFNNSIIPEDTFFPSSDVPCDVKLVEKSFETDTNLNFQNLSVIGFRILLLKVAGFNLLMTLRLWSSRAKRSGSGVKQTLNFDLLKLAGDVESNPGPSRGHMTEYKPTVRLATRDDVPRAVRTLAAAFADYPATRHTVDPDRHIERVTELQELFLTRVGLDIGKVWVADDGAAVAVWTTPESVEAGAVFAEIGPRMAELSGSRLAAQQQMEGLLAPHRPKEPAWFLATVGVSPDHQGKGLGSAVVLPGVEAAERAGVPAFLETSAPRNLPFYERLGFTVTADVEVPEGPRTWCMTRKPGA
modifications: Synthetic Polynucloetide
B6: 9901 (protein)
chain: MALPVTALLLPLALLLHAARPDIQMTQSPSSLSASVGDRVTITCKASQDVGTAVDWYQQKPGKAPKLLIYWASTRHTGVPSRFSGSGSGTDFTLTISSLQPEDFATYYCQQYNSYPLTFGQGTKVEIKRLEDLKNVFPPEVAVFEPSEAEISHTQKATLVCLATGFYPDHVELSWWVNGKEVHSGVCTDPQPLKEQPALNDSRYCLSSRLRVSATFWQNPRNHFRCQVQFYGLSENDEWTQDRAKPVTQIVSAEAWGRADCGFTSESYQQGVLSATILYEILLGKATLYAVLVSALVLMAMVKRKDSRGRAKRSGSGATNFSLLKQAGDVEENPGPTSMDWIWRILFLVGAATGAHSFEEVQLQQSGPELVKPGTSVRISCKTSGYTFTEYTIHWVKQSHGKSLEWIGNINPNNGGTTYNQKFEDKATLTVDKSSSTAYMELRSLTSEDSAVYYCAAGWNFDYWGQGTTLTVSSTRIQNPDPAVYQLRDSKSSDKSVCLFTDFDSQTNVSQSKDSDVYITDKCVLDMRSMDFKSNSAVAWSNKSDFACANAFNNSIIPEDTFFPSPESSCDVKLVEKSFETDTNLNFQNLSVIGFRILLLKVAGFNLLMTLRLWSS
modifications: Synthetic Polynucloetide
B7: 9763 (protein)
chain: MALPVTALLLPLALLLHAARPDIQMTQSPSSLSASVGDRVTITCKASQDVGTAVDWYQQKPGKAPKLLIYWASTRHTGVPSRFSGSGSGTDFTLTISSLQPEDFATYYCQQYNSYPLTFGQGTKVEIKRLEDLKNVFPPEVAVFEPSEAEISHTQKATLVCLATGFYPDHVELSWWVNGKEVHSGVCTDPQPLKEQPALNDSRYCLSSRLRVSATFWQNPRNHFRCQVQFYGLSENDEWTQDRAKPVTQIVSAEAWGRADCGFTSESYQQGVLSATILYEILLGKATLYAVLVSALVLMAMVKRKDSRGRAKRSGSGATNFSLLKQAGDVEENPGPTSMDWIWRILFLVGAATGAHSFEEVQLVESGGGLVQPGGSLRLSCAASGYTFTEYTIHWVRQAPGKGLEWVANINPNNGGTTYNQKFEDRFTISRDNSKNTLYLQMNSLRAEDTAVYYCARGWNFDYWGQGTLVTVSSTRIQNPDPAVYQLRDSKSSDKSVCLFTDFDSQTNVSQSKDSDVYITDKCVLDMRSMDFKSNSAVAWSNKSDFACANAFNNSIIPEDTFFPSPESSCDVKLVEKSFETDTNLNFQNLSVIGFRILLLKVAGFNLLMTLRLWSS
modifications: Synthetic Polynucloetide

Columns and labels:
[1] = system: L363 cells; assay: JNG assay, co-culture with L363 cells; type: cell-based; conditions: co-culture with L363
Outline: (§1)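 Read-out is NFAT-driven GFP measured by flow cytometry after ~4–18 h co-culture of SAR-expressing JNG cells with target cells (E:T about 1:2). SARs were introduced by lentiviral spinfection and selected with puromycin or blasticidin when possible; scores (+/- to 5+ ≈ 5–50% GFP+) are relative to parental JNG cells.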

[2] = system: U266 cells; assay: JNG NFAT-GFP induction on co-culture with U266; type: cell-based
[3] = system: RAJI-CD19-KO cells; assay: JNG assay, co-culture with RAJI-CD19-KO cells; type: cell-based; conditions: co-culture with Raji-CD19-KO
Outline: as §1

[4] = system: RS;411; assay: JNG assay, co-culture with RS;411 cells; type: cell-based; conditions: co-culture with RS411
Outline: as §1

[5] = system: Nalm6 cells; assay: JNG assay, co-culture with Nalm6 cells; type: cell-based; conditions: co-culture with Nalm6
Outline: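 GFP expression induced through the NFAT pathway was monitored by FACS once SAR-bearing Jurkat reporters had been cultured with target cells at an approximate 1:2 ratio for 4 to 18 hours; parental reporter cells served as the baseline.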

[6] = system: LNCaP-LucPPe cells; assay: LNCaP-LucPPE xenograft in NSG mice, with rechallenge; type: in vivo; conditions: for tumor control (bioluminescence imaging, caliper tumor volume), LNCaP-LucPPE xenograft: 1 × 10^6 LNCaP-LucPPe s.c., 17 days later 3 × 10^6 T cells i.v., male NSG mice; for survival, LNCaP-LucPPE xenograft: mouse, in vivo

Row | Molecule | NFAT-GFP ASSAY: L363 [1] | NFAT-GFP ASSAY: U266 [2] | NFAT-GFP ASSAY: Raji-CD19-KO [3] | NFAT-GFP ASSAY: RS411 [4] | NFAT-GFP ASSAY: Nalm6 [5] | tumor control (bioluminescence imaging, caliper tumor volume), LNCaP-LucPPE xenograft [6] | survival, LNCaP-LucPPE xenograft [6]
1 | B1 | 3+ (refer to approximately 5%, 10%, 20%, 30%, 40% and 50% GFP positive cells) | 5+ (refer to approximately 5%, 10%, 20%, 30%, 40% and 50% GFP positive cells) | 4+ (refer to approximately 5%, 10%, 20%, 30%, 40% and 50% GFP positive cells) | 2+ (refer to approximately 5%, 10%, 20%, 30%, 40% and 50% GFP positive cells) | 3+ (refer to approximately 5%, 10%, 20%, 30%, 40% and 50% GFP positive cells) | – | –
2 | B2 | 3+ (refer to approximately 5%, 10%, 20%, 30%, 40% and 50% GFP positive cells) | 5+ (refer to approximately 5%, 10%, 20%, 30%, 40% and 50% GFP positive cells) | 4+ (refer to approximately 5%, 10%, 20%, 30%, 40% and 50% GFP positive cells) | 2+ (refer to approximately 5%, 10%, 20%, 30%, 40% and 50% GFP positive cells) | 3+ (refer to approximately 5%, 10%, 20%, 30%, 40% and 50% GFP positive cells) | – | –
3 | B3 | – | – | – | – | – | effective control of tumor | improvement in survival
4 | B4 | – | – | – | – | – | effective control of tumor | improvement in survival
5 | B5 | – | – | – | – | – | statistically significant and effective tumor control | –
6 | B6 | – | – | – | – | – | effective control of tumor; also recorded: statistically significant and effective tumor control | improvement in survival
7 | B7 | – | – | – | – | – | effective control of tumor | improvement in survival
